# Biological target: Atg17 (Lachancea thermotolerans), crystallised construct (Lachancea thermotolerans)
# Test: SEC-MALS
substance,measurement,value
"Atg17 (Lachancea thermotolerans), crystallised construct (natural protein)",stoichiometry N,2
